Data on three substances can be found in article PMC8580143.

For test [1], the target named is endogenous rat PP1γ (rat (endogenous in primary hippocampal neurons)) (UniProt P63088). Briefly: proximity ligation; PLA in fixed primary rat hippocampal neurons with Tau7 and a PP1γ-specific antibody; puncta per area of Tau12 staining; n = 3; untransduced neurons for endogenous tau. On the set-up: unit not given here.
In test [2] the target is endogenous rat PP1 (detected with an antibody that recognizes all PP1 isoforms) (rat (endogenous in primary hippocampal neurons)) (UniProt P62138). Briefly: proximity ligation; PLA in fixed primary rat hippocampal neurons (DIV 8) with Tau7 and a pan-PP1 antibody; puncta per area of Tau12 (human tau) staining; n = 3; untransduced neurons for endogenous tau. On the set-up: unit not given here.
UniProt P62138, sequence (P62138 whole entry, canonical isoform): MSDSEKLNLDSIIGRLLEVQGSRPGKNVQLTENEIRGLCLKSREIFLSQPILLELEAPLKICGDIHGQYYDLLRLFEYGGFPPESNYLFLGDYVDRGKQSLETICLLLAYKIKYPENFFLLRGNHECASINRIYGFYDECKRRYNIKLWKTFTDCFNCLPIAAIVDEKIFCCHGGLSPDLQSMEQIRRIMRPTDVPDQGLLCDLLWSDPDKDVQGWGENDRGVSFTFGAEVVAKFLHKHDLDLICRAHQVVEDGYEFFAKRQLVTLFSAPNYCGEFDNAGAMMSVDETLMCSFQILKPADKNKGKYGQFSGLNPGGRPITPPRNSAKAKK

UniProt P63088, sequence (P63088 whole entry, canonical isoform): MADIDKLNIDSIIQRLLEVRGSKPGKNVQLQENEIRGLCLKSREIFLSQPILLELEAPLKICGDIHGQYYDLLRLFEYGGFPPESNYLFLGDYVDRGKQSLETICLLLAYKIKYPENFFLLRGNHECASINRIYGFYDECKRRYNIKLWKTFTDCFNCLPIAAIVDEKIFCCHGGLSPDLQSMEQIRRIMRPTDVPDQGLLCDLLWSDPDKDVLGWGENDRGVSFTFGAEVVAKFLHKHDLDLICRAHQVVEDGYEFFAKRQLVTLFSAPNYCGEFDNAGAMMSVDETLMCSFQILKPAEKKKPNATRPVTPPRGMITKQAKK

As to “P301L mutant human tau (C-terminally FLAG-tagged) expressed by lentivirus in rat hippocampal neurons (natural protein)”, the PLA puncta per area of Tau12 staining in test [1] came to 28; in test [2], 67.3.
With “R5L mutant human tau (C-terminally FLAG-tagged) expressed by lentivirus in rat hippocampal neurons (natural protein)”, the PLA puncta per area of Tau12 staining stood at 16.2 in test [1] and 31.3 in test [2].
Taken in the same sequence, the figures for “wild-type human tau (C-terminally FLAG-tagged) expressed by lentivirus in rat hippocampal neurons (natural protein)” were 11.3 and 23.1.
